Data from patent publication CN113929783A (FUZHOU MAIXIN BIOTECHNOLOGY DEV CO LTD, dated 2022).

Target: T1, 人CD99蛋白 (组织切片中表达) (human, UniProt P14209 23-185)
T1 construct: whole, on cells
T1 sequence (looked up): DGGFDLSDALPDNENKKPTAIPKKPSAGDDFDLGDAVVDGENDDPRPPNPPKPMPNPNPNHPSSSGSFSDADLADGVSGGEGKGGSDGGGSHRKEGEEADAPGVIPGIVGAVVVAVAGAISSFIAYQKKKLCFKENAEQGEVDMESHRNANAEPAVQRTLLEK
Experiment: IHC on 8 ovarian granulosa cell tumours and 8 primitive neuroectodermal tumours

B1: 抗CD99蛋白单克隆抗体(10D2A10F9) (antibody, V domains shown)
VH: EVQLQQSGAELVKPGASVKLSCTASGFNIKDTYMHWVKQRPEQGLEWIGRIDPANGNTKYDPKFQGKATITADTSSNTAYLQLSSLTSEDTAVYYCGRRGFAYWGQGTLVTVSA
VL: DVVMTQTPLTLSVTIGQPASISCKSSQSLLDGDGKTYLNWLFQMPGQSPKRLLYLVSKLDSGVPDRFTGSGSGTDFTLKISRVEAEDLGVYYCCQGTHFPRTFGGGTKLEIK
notes: also called CGMCC NO.22316
binding result: binds
